Read-outs that look alike come from different tables or passages of the source. *1 amine or outer side, *2 acyl side, *3 side chain or, on linkers, in order; H or OH if unused. Where no end group is shown, it is not given here. Side-chain parts run from the residue outwards. [ ]: non-standard residue; d: D form. γGlu = O=C(O)[C@H](CCC(=O)[*:2])N[*:1]; AEEA = NCCOCCOCC(=O)O; Aib = CC(C)(N)C(=O)O
Legend:
Assay in all cases: cell-based or functional assay
[1] = target: human glucose-dependent insulinotropic polypeptide receptor (GIP receptor) (human) (UniProt P48546)
[2] = target: human glucose-dependent insulinotropic polypeptide receptor (GIP receptor) (human) (UniProt P48546); remark: listed apart in the source
[3] = target: human glucagon-like peptide-1 receptor (GLP-1R) (human) (UniProt P43220)
Chain of human glucagon-like peptide-1 receptor (GLP-1R) (human) (P43220 24-463): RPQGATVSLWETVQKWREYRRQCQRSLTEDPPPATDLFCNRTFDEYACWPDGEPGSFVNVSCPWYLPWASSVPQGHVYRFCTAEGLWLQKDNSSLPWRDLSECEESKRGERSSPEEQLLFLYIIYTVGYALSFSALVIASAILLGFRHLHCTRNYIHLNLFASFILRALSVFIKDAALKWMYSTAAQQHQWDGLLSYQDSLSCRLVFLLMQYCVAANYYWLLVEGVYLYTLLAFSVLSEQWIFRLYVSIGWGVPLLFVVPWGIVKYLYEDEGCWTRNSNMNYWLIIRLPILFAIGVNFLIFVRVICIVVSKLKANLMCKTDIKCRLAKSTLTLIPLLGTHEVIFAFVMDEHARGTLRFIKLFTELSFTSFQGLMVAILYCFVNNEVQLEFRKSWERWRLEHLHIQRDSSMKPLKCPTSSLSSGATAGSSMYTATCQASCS

[4] = target: human glucagon-like peptide-1 receptor (GLP-1R) (human) (UniProt P43220); remark: listed apart in the source
[5] = target: T1, human glucagon-like peptide-1 receptor (GLP-1R) (human, UniProt P43220 24-463)
T1 sequence (P43220 24-463): as above

[6] = target: T2, human glucose-dependent insulinotropic polypeptide receptor (GIP receptor) (human, UniProt P48546 22-466)
T2 sequence (looked up): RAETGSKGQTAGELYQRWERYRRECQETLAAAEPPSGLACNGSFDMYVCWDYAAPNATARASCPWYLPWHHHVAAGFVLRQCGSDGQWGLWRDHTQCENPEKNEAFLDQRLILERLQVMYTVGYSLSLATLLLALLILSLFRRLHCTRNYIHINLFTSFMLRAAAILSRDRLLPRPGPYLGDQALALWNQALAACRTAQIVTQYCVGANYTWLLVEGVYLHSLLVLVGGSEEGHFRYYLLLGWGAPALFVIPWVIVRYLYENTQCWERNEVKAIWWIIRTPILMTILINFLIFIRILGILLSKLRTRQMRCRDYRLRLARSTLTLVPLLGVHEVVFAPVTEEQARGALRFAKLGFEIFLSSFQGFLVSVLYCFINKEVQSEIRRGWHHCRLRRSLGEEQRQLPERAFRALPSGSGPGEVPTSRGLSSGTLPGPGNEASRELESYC

[7] = target: T1, human glucagon-like peptide-1 receptor …; remark: listed apart in the source
[8] = target: T2, human glucose-dependent insulinotropic …; remark: listed apart in the source

| Molecule | Human GLP-1R activity (EC50 nM); cAMP HTRF in CHO-K1/GLP-1R/CRE-luc cells [5] | Human GIP receptor activity (EC50 nM); cAMP HTRF in CHO-K1 cells transfected with hGIP receptor [6] | further results |
| --- | --- | --- | --- |
| Natural GIP (from UniProt P09681 52-93) (ligand) | – | – | Human GIP receptor activity (EC50 nM); cAMP HTRF in CHO-K1 cells transfected with hGIP receptor [1]: 0.006 nM |
| LY3298176 (peptide) | – | – | Human GIP receptor activity (EC50 nM); cAMP HTRF in CHO-K1 cells transfected with hGIP receptor [2]: 0.056 nM; Human GLP-1R activity (EC50 nM); cAMP HTRF in CHO-K1/GLP-1R/CRE-luc cells [3]: 0.13 nM; Human GIP receptor activity (EC50 nM); cAMP HTRF in CHO-K1 cells transfected with hGIP receptor [1]: 0.031 nM; Human GLP-1R activity (EC50 nM); cAMP HTRF in CHO-K1/GLP-1R/CRE-luc cells [4]: 0.078 nM |
| Y[Aib]EGTFTSDYSIYLEK([AEEA-AEEA-γGlu-C20‑OH])IAAQEFVNWLIAGGPSSGAPPPS-NH2 [compound 9#] | 0.049 nM | 0.04 nM | – |
| Y[Aib]EGTFTSDYSIYK([AEEA-AEEA-γGlu-C20‑OH])ERIAAQEFVNWLLAGGPSSGAPPPS-NH2 [compound 17#] | 0.022 nM | 0.11 nM | – |
| Y[Aib]EGTFTSDYSIYK([AEEA-AEEA-γGlu-C20‑OH])ERIAAQEFINWLIAGGPSSGAPPPS-NH2 [compound 15#] | 0.015 nM | 0.23 nM | – |
| Y[Aib]EGTFTSDYSIYLEK([AEEA-AEEA-γGlu-C20‑OH])IAAQEFINWLIAGGPSSGAPPPS-NH2 [compound 10#] | 0.065 nM | 0.056 nM | – |
| Y[Aib]EGTFTSDYSIYK([AEEA-AEEA-γGlu-C20‑OH])ERIAAQEFVNWLIAGGPSSGAPPPS-NH2 [compound 13#] | 0.017 nM | 0.13 nM | – |
| Y[Aib]EGTFTSDYSIYK([AEEA-AEEA-γGlu-C20‑OH])DKIAAQEFVNWLLAGGPSSGAPPPS-NH2 [compound 7#] | – | – | Human GLP-1R activity (EC50 nM); cAMP HTRF in CHO-K1/GLP-1R/CRE-luc cells [7]: 0.021 nM; Human GIP receptor activity (EC50 nM); cAMP HTRF in CHO-K1 cells transfected with hGIP receptor [8]: 0.11 nM |
| Y[Aib]EGTFTSDYSIYK([AEEA-AEEA-γGlu-C20‑OH])EKIAAQEFVNWLLAGGPSSGAPPPS-NH2 [compound 18#] | 0.013 nM | 0.06 nM | – |
| Y[Aib]EGTFTSDYSIYK([AEEA-AEEA-γGlu-C20‑OH])EKIAAQEFINWLLAGGPSSGAPPPS-NH2 [compound 16#] | 0.029 nM | 0.095 nM | – |
| Y[Aib]EGTFTSDYSIYK([AEEA-AEEA-γGlu-C20‑OH])EKIAAQEFVNWLIAGGPSSGAPPPS-NH2 [compound 12#] | 0.03 nM | 0.17 nM | – |
| Y[Aib]EGTFTSDYSIYK([AEEA-AEEA-γGlu-C20‑OH])EKIAAQEFINWLIAGGPSSGAPPPS-NH2 [compound 14#] | 0.013 nM | 0.13 nM | – |
